# Where no end group is shown, it is not given here. [ ]: non-standard residue; d: D form. d1Nal = N[C@H](Cc1cccc2ccccc12)C(=O)O; Phg = N[C@H](C(=O)O)c1ccccc1; Nva = CCC[C@H](N)C(=O)O
# B1: KwFwLL-NH2 (peptide)
# peptide: K[dW]F[dW]LL-NH2
# modifications: N-terminus assumed
# SMILES: CC(C)C[C@H](NC(=O)[C@H](CC(C)C)NC(=O)[C@@H](Cc1c[nH]c2ccccc12)NC(=O)[C@H](Cc1ccccc1)NC(=O)[C@@H](Cc1c[nH]c2ccccc12)NC(=O)[C@@H](N)CCCCN)C(N)=O
# B2: K-(D-1-Nal)-(L-Cha)-wLL-NH2 (peptide)
# peptide: KXXXLL
# modifications: 1-naphthyl-D-alanine (D-1-Nal) at 2; 3-cyclohexyl-L-alanine (L-Cha) at 3; D-Trp at 4; C-terminal amide
# B3: K-(D-1-Nal)-(L-Phg)-wLL-NH2 (peptide)
# peptide: K[d1Nal][Phg][dW]LL-NH2
# modifications: N-terminus assumed
# SMILES: CC(C)C[C@H](NC(=O)[C@H](CC(C)C)NC(=O)[C@@H](Cc1c[nH]c2ccccc12)NC(=O)[C@@H](NC(=O)[C@@H](Cc1cccc2ccccc12)NC(=O)[C@@H](N)CCCCN)c1ccccc1)C(N)=O
# B4: K-(D-1-Nal)-(L-tBf)-wLL-NH2 (peptide)
# peptide: KXXXLL
# modifications: 1-naphthyl-D-alanine (D-1-Nal) at 2; tert-butyl-L-phenylalanine (L-tBf) at 3; D-Trp at 4; C-terminal amide
# B5: K-(D-1-Nal)-(L-Nva)-wLL-NH2 (peptide)
# peptide: K[d1Nal][Nva][dW]LL-NH2
# modifications: N-terminus assumed
# SMILES: CCC[C@H](NC(=O)[C@@H](Cc1cccc2ccccc12)NC(=O)[C@@H](N)CCCCN)C(=O)N[C@H](Cc1c[nH]c2ccccc12)C(=O)N[C@@H](CC(C)C)C(=O)N[C@@H](CC(C)C)C(N)=O
# Target: T1, human ghrelin receptor (human, UniProt Q92847 1-366)
# Experiment: cell-based or functional assay
# T1 sequence (Q92847 whole entry): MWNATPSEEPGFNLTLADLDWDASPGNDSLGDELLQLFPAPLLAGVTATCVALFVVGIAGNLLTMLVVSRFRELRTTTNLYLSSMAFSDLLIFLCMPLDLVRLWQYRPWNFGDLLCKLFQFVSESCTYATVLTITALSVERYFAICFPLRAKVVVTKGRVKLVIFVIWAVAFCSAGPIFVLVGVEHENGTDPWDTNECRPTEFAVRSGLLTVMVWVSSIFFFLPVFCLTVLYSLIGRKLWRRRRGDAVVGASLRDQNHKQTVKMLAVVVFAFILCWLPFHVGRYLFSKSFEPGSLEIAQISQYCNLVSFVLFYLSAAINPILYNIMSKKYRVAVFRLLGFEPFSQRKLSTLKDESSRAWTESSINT
Binder,"EC50, inverse agonistic activity, inositol trisphosphate turnover assay in COS-7 cells transfected with the ghrelin receptor [nM]","Emax [Δ %], inverse agonistic activity, inositol trisphosphate turnover assay"
KXFXLL (1-naphthyl-D-alanine (D-1-Nal) at 2; D-Trp at 4; C-terminal amide) [K-(D-1-Nal)-FwLL-NH2],3.4,64 Δ %
B1,45.6,37 Δ %
KXFXLL (beta-(3-benzothienyl)-D-alanine (D-Bth) at 2; D-Trp at 4; C-terminal amide) [K-(D-Bth)-FwLL-NH2],–,81 Δ %
"KXFXLL (3,3-diphenyl-D-alanine (D-Dip) at 2; D-Trp at 4; C-terminal amide) [K-(D-Dip)-FwLL-NH2]",13.1,87 Δ %
"KXFXLL (4,4'-biphenyl-D-alanine (D-Bip) at 2; D-Trp at 4; C-terminal amide) [K-(D-Bip)-FwLL-NH2]",184,82 Δ %
KXFXLL (D-Phe at 2; D-Trp at 4; C-terminal amide) [K-(D-Phe)-FwLL-NH2],241,62 Δ %
KXFXLL (2-naphthyl-D-alanine (D-2-Nal) at 2; D-Trp at 4; C-terminal amide) [K-(D-2-Nal)-FwLL-NH2],161,66 Δ %
KXFXLL (4-benzoyl-D-phenylalanine (D-Bpa) at 2; D-Trp at 4; C-terminal amide) [K-(D-Bpa)-FwLL-NH2],169,67 Δ %
KXFXLL (tert-butyl-D-phenylalanine (D-tBf) at 2; D-Trp at 4; C-terminal amide) [K-(D-tBf)-FwLL-NH2],624,76 Δ %

# Target: T1, human ghrelin receptor
# Experiment: cell-based or functional assay
# Remark: another data set of the same source
row,Binder,"EC50, agonistic activity, inositol trisphosphate turnover assay in COS-7 cells transfected with the ghrelin receptor [nM]"
1,KXFXLL (D-Trp at 2; 2-naphthyl-D-alanine (D-2-Nal) at 4; C-terminal amide) [KwF-(D-2-Nal)-LL-NH2],12.6
2,KXFXLL (D-Trp at 2; 1-naphthyl-D-alanine (D-1-Nal) at 4; C-terminal amide) [KwF-(D-1-Nal)-LL-NH2],17.9

# Target: T1, human ghrelin receptor
# Experiment: cell-based or functional assay
# Remark: another data set of the same source
Binder,"EC50, inverse agonistic activity, inositol trisphosphate turnover assay in COS-7 cells transfected with the ghrelin receptor [nM]","Emax [Δ %], inverse agonistic activity, inositol trisphosphate turnover assay",x-fold (EC50) compared to K-(D-1-Nal)-FwLL-NH2 [fold],x-fold (Emax) compared to K-(D-1-Nal)-FwLL-NH2 [fold]
KXFXLL (1-naphthyl-D-alanine (D-1-Nal) at 2; D-Trp at 4; C-terminal amide) [K-(D-1-Nal)-FwLL-NH2],3.4,64 Δ %,–,–
B2,96.8,85 Δ %,28.5,1.3
KXXXLL (1-naphthyl-D-alanine (D-1-Nal) at 2; D-Phe at 3; D-Trp at 4; C-terminal amide) [K-(D-1-Nal)-(D-Phe)-wLL-NH2],120,58 Δ %,35.2,0.9
B3,> 1000,–,> 290,–
B4,124,84 Δ %,36.5,1.3
B5,498,71 Δ %,146,1.1
